# Data: article doi:10.1101/859678 (bioRxiv, 2019)
# Target: the molecule itself
# Assay: SEC
protein,measurement,value
"Arabidopsis thaliana Golgi anti-apoptotic protein 3 (AtGAAP3) (natural protein, UniProt Q9ZQX7-1 1-248, looked up) MYQWNLPYRKDDVETGVSSRRPLLYPAMHENPELRWGFIRKVYSIIAFQLLATVAVAATVVTVRPIALFFATTGLGLALYIVIIITPLIVLCPLYYYHQKHPVNYLLLGIFTLALAFVVGLTCAFTNGKVILESVILTSVVVLSLTLYTFWAARKGYDFNFLGPFLFGALTVLIFFALIQILFPLGRVSVMIYGCLVSIIFCGYIVYDTDNLIKRHTYDEYIWAAVSLYLDIINLFLYLLTVLRALQR",binding result,binds
